In this assay the target is TAMRA-labeled M9-NLS of hnRNPA2 WT peptide (human). The assay can be described thus: fluorescence polarisation. For orientation: Fluorescence polarisation rises when a labelled molecule tumbles more slowly, as on binding a larger partner.

Broadly, the Kd is the concentration at which binding is half-saturated. A lower Kd goes with higher affinity. Substance “Karyopherin-β2 WT (from UniProt Q92973 1-898) (receptor)” came in with an equilibrium dissociation constant (Kd) of 95 nM.
